Assay [1] addresses YqiC of Salmonella enterica serovar Typhimurium (Salmonella enterica serovar Typhimurium ATCC 14028). Put plainly: SEC-MALS; static light scattering (90°) and refractive index coupled to a Superdex 75 column; eluted with PBS (methods) or 50 mM Tris-HCl, 150 mM NaCl pH 8; calibrated with BSA; single homogeneous peak. For orientation: SEC sorts molecules by how far they enter the pores of the column.

Assay [2] shares this target. The assay can be described thus: cross-linking; purified YqiC with ethylene glycol bis(succinimidylsuccinate) (EGS) at 0.5, 1.0 and 5.0 mM, 30 min at room temperature in phosphate-buffered saline, stopped with 50 mM Tris-HCl pH 8.0; products on 15% SDS-PAGE, Coomassie staining.

Broadly, the stoichiometry N is the number of molecules, sites or subunits per partner or assembly.

As for “YqiC of Salmonella enterica serovar Typhimurium (from UniProt A0A2X4T3G4 1-98) (natural protein)”, the stoichiometry N in assay [1] and in assay [2] was 3 each time.
